Measured values from the Human Domainome abundance scans (Beltran et al. 2025).
± gives the uncertainty stated by the source.

B1: Zinc finger homeobox protein 3, residues 2643 to 2698; numbered along this chain, Q15911 (parent)
chain: RLRTTITPEQLEILYQKYLLDSNPTRKMLDHIAHEVGLKKRVVQVWFQNTRARERK
B2: Membrane-associated guanylate kinase, WW and PDZ domain-containing protein 3, residues 287 to 329; numbered along this chain, Q5TCQ9 (parent)
chain: MRDETLEPLPKNWEMAYTDTGMIYFIDHNTKTTTWLDPRLCKK

Variants of: B1
Assay: abundance fitness (aPCA) (normalised: wild type 0, dead -1); higher = more abundant; growth selection in yeast, the domain comes from the species named
Conditions: Homo sapiens

| Variant | abundance fitness |
| --- | --- |
| I6H | -0.332 ± 0.09 |
| I6C | -0.022 ± 0.1 |
| I6A | -0.298 ± 0.087 |
| I6K | -0.392 ± 0.1 |
| I6T | -0.211 ± 0.081 |
| I6Q | -0.705 ± 0.12 |
| I6V | -0.022 ± 0.08 |
| I6G | -0.543 ± 0.11 |
| I6N | -0.702 ± 0.091 |
| I6S | -0.648 ± 0.081 |
| I6Y | 0.035 ± 0.081 |
| I6P | -0.182 ± 0.083 |
| I6R | -0.868 ± 0.1 |
| I6L | 0.051 ± 0.072 |
| I6M | 0.068 ± 0.094 |
| T5E | 0.445 ± 0.15 |
| T5C | -0.107 ± 0.14 |
| T5Q | 0.17 ± 0.15 |
| T5M | 0.286 ± 0.15 |
| T5P | 0.176 ± 0.17 |
| T5A | 0.132 ± 0.097 |
| T5Y | -0.319 ± 0.24 |
| T5F | -0.358 ± 0.2 |

| Variant | abundance fitness |
| --- | --- |
| T5V | -0.172 ± 0.089 |
| T5W | -0.192 ± 0.15 |
| T5I | -0.165 ± 0.14 |
| T5H | -0.784 ± 0.31 |
| T5D | 0.075 ± 0.14 |
| T5R | -0.498 ± 0.096 |
| T5N | -0.233 ± 0.19 |
| T5S | -0.25 ± 0.12 |
| T5K | -0.593 ± 0.23 |
| T4F | -0.378 ± 0.24 |
| T4K | -0.318 ± 0.16 |
| T4W | -0.423 ± 0.11 |
| T4Y | -0.254 ± 0.18 |
| T4M | 0.068 ± 0.14 |
| T4A | -0.193 ± 0.1 |
| T4G | -0.002 ± 0.08 |
| T4V | -0.106 ± 0.092 |
| T4I | 0.048 ± 0.21 |
| T4E | 0.439 ± 0.14 |
| T4P | 0.149 ± 0.13 |
| T4H | -0.337 ± 0.17 |
| T4R | -0.576 ± 0.095 |
| T4C | -0.56 ± 0.19 |

| Variant | abundance fitness |
| --- | --- |
| T4S | -0.144 ± 0.13 |
| T4L | -0.335 ± 0.11 |
| T4N | -0.042 ± 0.2 |
| T4D | 0.154 ± 0.19 |
| R3K | 0.209 ± 0.11 |
| R3H | 0.199 ± 0.15 |
| R3T | 0.435 ± 0.12 |
| R3L | 0.186 ± 0.095 |
| R3Q | 0.353 ± 0.13 |
| R3D | 0.543 ± 0.11 |
| R3E | 0.366 ± 0.1 |
| R3F | 0.037 ± 0.15 |
| R3W | 0.241 ± 0.1 |
| R3M | 0.317 ± 0.12 |
| R3S | 0.43 ± 0.094 |
| R3Y | 0.006 ± 0.17 |
| R3P | -0.081 ± 0.15 |
| R3C | 0.216 ± 0.11 |
| R3I | 0.19 ± 0.14 |
| R3G | 0.228 ± 0.076 |
| R3N | 0.173 ± 0.17 |
| R3A | 0.493 ± 0.083 |
| L2Q | 0.102 ± 0.21 |

| Variant | abundance fitness |
| --- | --- |
| L2W | -0.134 ± 0.13 |
| L2N | 0.232 ± 0.21 |
| L2E | 0.17 ± 0.15 |
| L2T | 0.25 ± 0.12 |
| L2G | 0.136 ± 0.083 |
| L2I | 0.217 ± 0.13 |
| L2R | -0.262 ± 0.1 |
| L2H | -0.006 ± 0.2 |
| L2Y | 0.222 ± 0.16 |
| L2F | 0.082 ± 0.16 |
| L2D | 0.655 ± 0.14 |
| L2S | 0.331 ± 0.1 |
| L2M | -0.221 ± 0.17 |
| L2P | -0.227 ± 0.16 |
| L2A | -0.009 ± 0.12 |
| R1S | 0.131 ± 0.15 |
| R1M | 0.23 ± 0.35 |
| R1A | 0.267 ± 0.21 |
| R1T | 0.504 ± 0.29 |
| R1G | 0.258 ± 0.11 |
| R1I | -0.063 ± 0.41 |
| R1K | 0.027 ± 0.2 |
| R1L | 0.561 ± 0.31 |

| Variant | abundance fitness |
| --- | --- |
| R1N | 0.354 ± 0.26 |
| R1V | 0.297 ± 0.19 |
| R1C | 0.239 ± 0.16 |
| R1Y | 0.054 ± 0.32 |
| P8G | 0.193 ± 0.079 |
| P8D | -0.084 ± 0.14 |
| P8A | 0.388 ± 0.095 |
| P8C | 0.475 ± 0.15 |
| P8F | 0.584 ± 0.2 |
| P8E | -0.259 ± 0.14 |
| T7R | -0.443 ± 0.082 |
| T7S | -0.169 ± 0.092 |
| T7E | 0.087 ± 0.096 |
| T7G | -0.072 ± 0.077 |
| T7A | 0.08 ± 0.084 |
| T7L | -0.212 ± 0.083 |
| T7P | 0.101 ± 0.14 |
| T7N | -0.338 ± 0.2 |
| T7V | -0.688 ± 0.1 |
| T7W | -0.719 ± 0.12 |
| T7Y | -0.487 ± 0.26 |
| T7C | -0.244 ± 0.12 |
| T7M | -0.228 ± 0.15 |

Variants of: B2
Assay: as above
Conditions: Homo sapiens

| Variant | abundance fitness |
| --- | --- |
| T33L | -0.496 ± 0.032 |
| T33Q | -0.417 ± 0.038 |
| T33I | -0.519 ± 0.059 |
| T33K | -0.388 ± 0.059 |
| T33Y | -0.447 ± 0.11 |
| T33F | -0.584 ± 0.1 |
| T33R | -0.351 ± 0.028 |
| T33S | -0.187 ± 0.037 |
| T33G | -0.551 ± 0.029 |
| T33N | -0.418 ± 0.076 |
| T33H | -0.535 ± 0.11 |
| T33D | -0.648 ± 0.044 |
| T33V | -0.298 ± 0.03 |
| T33M | -0.315 ± 0.057 |
| T33W | -0.445 ± 0.042 |
| T33E | -0.442 ± 0.034 |
| T33C | -0.142 ± 0.046 |
| T33P | -0.684 ± 0.053 |
| K43S | 0.002 ± 0.04 |
| K43L | -0.011 ± 0.11 |
| K43G | 0.03 ± 0.043 |
| K43C | -0.065 ± 0.045 |
| K43I | -0.144 ± 0.047 |
| K43W | -0.044 ± 0.047 |
| K43A | 0.011 ± 0.072 |
| K43Q | 0.136 ± 0.15 |

| Variant | abundance fitness |
| --- | --- |
| K43P | 0.042 ± 0.046 |
| K43N | -0.062 ± 0.076 |
| K43H | -0.036 ± 0.05 |
| K43E | 0.031 ± 0.07 |
| K43V | -0.045 ± 0.065 |
| C41I | 0.059 ± 0.1 |
| C41Y | -0.005 ± 0.055 |
| C41A | 0.058 ± 0.028 |
| C41F | -0.044 ± 0.095 |
| C41V | 0.02 ± 0.03 |
| C41E | 0.038 ± 0.044 |
| C41Q | 0.04 ± 0.037 |
| C41S | 0.034 ± 0.041 |
| C41P | 0.043 ± 0.041 |
| C41K | -0.015 ± 0.04 |
| C41H | 0.051 ± 0.081 |
| C41T | 0.01 ± 0.046 |
| C41R | -0.021 ± 0.029 |
| C41W | 0.007 ± 0.033 |
| C41G | -0.004 ± 0.029 |
| C41D | -0.006 ± 0.039 |
| C41L | -0.013 ± 0.033 |
| P38F | -0.95 ± 0.13 |
| P38C | -1.12 ± 0.12 |
| P38M | -0.83 ± 0.066 |
| P38W | -0.963 ± 0.048 |
